Measured values published in patent US6833237B1, “Genes involved in stroke response and/or regulated by FK506, proteins encoded thereby, and methods of use” (Quark Biotech, Inc., priority 2000, dated 2004).

B1: SEQ ID No 94: library-derived antisense cDNA fragment of KIAA 0538, expressed from retroviral vector pLXSN (nucleic acid, listed as Homo sapiens)
antisense: TTAAAACTGCTTACCAGTGGCTGTCTGCGCTGCGGAAGGTGAGCATCAACAACACGGGACTGTTGGGCTCCTACCACCCTGGCGTCTTCCGTGGGGACAAGTGGAGCTGCTGCCACCAAAAAGAGAAGACAGGTCAGGGCTGCGATAAGACCCGGNCACGGGTGACCCTGCAGGAGTGGAATGACCCTNTTGACCGTGACCTTGAGGCCCANCTCATCTACCGGCACCTGCTGGGCGNGGAGGCCATGCTGTG
modifications: expressed from retroviral vector pLXSN; (156)..(238) n
notes: library-derived antisense cDNA fragment of KIAA 0538, expressed from retroviral vector pLXSN
B2: full length cDNA clone of KIAA 0538: full-length KIAA0538 cDNA under the control of Tet-repressible promoter, transfected into P19 cells (nucleic acid, listed as Homo sapiens)
DNA: B1 antisense
modifications: under Tet-repressible promoter; (156)..(238) n
notes: full-length KIAA0538 cDNA under the control of Tet-repressible promoter, transfected into P19 cells

How the values were obtained:
BE2C cells = assay: Dopamine toxicity in BE2C cells, viability by Neutral red staining; assay type: cell-based, human; settings: for cell survival at high Dopamine concentrations compared to control: BE2C cells, infection and transfection, Dopamine 24 hours, vs empty vector (FIG. 4 and 5); for protection of cells (Neutral red staining): 24 hours after exposure to high dopamine concentrations
Excerpt: The aim of the experiment was validation of the fragment of KIAA0538 found using Dopamine selection (SEQ. I.D. No 94) which has 253 nucleotides. A slightly smaller fragment was used , wherein the first 12 of the nucleotides of SEQ. I.D. No 94 were replaced with 5 different nucleotides. The location of this smaller fragment (having 246 nucleotides) within the KIAA0538 cDNA is from nucleotide 2020 to nucleotide 2265. For purpose of validation, cells were studied either after decrease of the gene expression by means of transfection or transduction with an antisense expressing vector (the fragment rescued from the library during the functional screening), or after increased gene expression using transfection with a full length expression vector. For experiment, BE2C cells were seeded into 6-well plates at density 100,000 cells/well. Retroviral vector expressing KIAA0538 antisense fragment (rescued in functional selection) fragment or empty vector (pLXSN) were introduced in neuroblastoma cells by two different methods—transfection using Fugen6 reagent (Rosh) or by retroviral infection. Population of transfected/transduced cells was enriched by 3 days G418 selection. BE2C cells were further treated with different concentrations of Dopamine for 24 hours and assayed for viability by Neutral red staining (FIG. 4—infection; FIG. 5—transfection).

P19 cells = assay: Colony formation assay in P19 cells, normoxic or ischemic conditions; assay type: cell-based, mouse; settings: vs empty vector (FIG. 6)
Procedure: FIG. 6B is a graphical representation of FIG. 6A.
The effect of the full length KIAA0538 cDNA on cell survival was tested in colony formation assay in non-differentiated P19 cells stably expressing Tet-activator (confers high level of expression from responsive promoters). P19 cells were transfected with eithet empty vector or the same vector containing the full-length KIAA0538 cDNA under the control of Tet-repressible promoter. The number of transfected cells further taken for colony formation assay was normalized by cotransfection with GFP, so that the equal number of GFP-positive cells was taken for the assay. The cells were further plated and grown in the absence of tetracycline (to ensure the gene's expression) and in the presence of hygromycin (selectable marker) for 48 hours. Then part of the plates were subjected to 16 hours ischemia (0.5% O2 and no glucose) and following the transfer into normoxic conditions were further grown until the accomplishing of hygromycin selection (death of mock-transfected cells). The cell colonies grown in plates were fixed, stained with methylene blue and photographed with a CCD camera (FIG. 6). The area of the colonies was quantified using the IMAGE-Pro program.

| Molecule | cell survival at high Dopamine concentrations compared to control (BE2C cells; listed as KIAA0538 antisense fragment) | cell survival at high Dopamine concentrations compared to control (BE2C cells; listed as antisense KIAA0538 fragment) | cell survival at high Dopamine concentrations compared to control (BE2C cells; listed as antisense fragment of KIAA0538) | protection of cells (Neutral red staining) (BE2C cells; retrovirally infected BE2C cells, vs control vector pLXSN (FIG. 4)) | protection of cells (Neutral red staining) (BE2C cells; transiently transfected BE2C cells, vs control vector pLXSN (FIG. 5)) | effect on cell survival, colony formation (P19 cells; 16 hours ischemia (0.5% O2 and no glucose)) | effect on cell survival, colony formation (P19 cells; 16 hours ischemia (0.5% O2 and no glucose), listed as KIAA0538) | effect on cell survival, colony formation (P19 cells; 16 hours ischemia (0.5% O2 and no glucose), listed as full-length cDNA) | effect on cell survival, colony formation (P19 cells; normoxic conditions, listed as KIAA0538) | effect on cell survival, colony formation (P19 cells; normoxic conditions, listed as full-length cDNA) |
| --- | --- | --- | --- | --- | --- | --- | --- | --- | --- | --- |
| B1 | rescue of cells from apoptotic death | protects | increased cell survival | protection | protection | – | – | – | – | – |
| B2 | – | – | – | – | – | very few colonies remaining | almost entirely non-viable | dramatically cytotoxic | detrimental | moderately cytotoxic |
